Here are results for two proteins from publication PMC7077851, “Comparative analysis of the human serine hydrolase OVCA2 to the model serine hydrolase homolog FSH1 from S. cerevisiae” (PLoS ONE, 2020).

What all share (experiment): purified protein
What all share (type): biochemical, Homo sapiens

Substrate in data set [1]: CCCCCCCCCC(=O)Oc1ccc([N+](=O)[O-])cc1
The conditions noted are these: PBS, 0.1 mg/mL acetylated BSA, 1% acetonitrile, 25 °C.

Substrate in data set [2]: CCCC(=O)Oc1ccc([N+](=O)[O-])cc1
The settings on record: PBS, 0.1 mg/mL acetylated BSA, 1% acetonitrile, 25 °C.

Substrate in data set [3]: CC(=O)Oc1ccc([N+](=O)[O-])cc1
The settings on record: PBS, 0.1 mg/mL acetylated BSA, 1% acetonitrile, 25 °C.

Substrate in data set [4]: CCCCCCCCCCCCCC(=O)Oc1ccc([N+](=O)[O-])cc1
The settings on record: PBS, 0.1 mg/mL acetylated BSA, 1% acetonitrile, 25 °C.

Substrate in data set [5]: CCCCCCCCCCCC(=O)Oc1ccc([N+](=O)[O-])cc1
The settings on record: PBS, 0.1 mg/mL acetylated BSA, 1% acetonitrile, 25 °C.

Substrate in data set [6]: COCC(=O)OCOc1ccc2c(c1)Oc1cc(OCOC(=O)COC)ccc1C21OC(=O)c2ccccc21
The conditions noted are these: PBS, 0.1 mg/mL acetylated BSA, 25 °C.

Substrate in data set [7]: COCCOCC(=O)OCOc1ccc2c(c1)Oc1cc(OCOC(=O)COCCOC)ccc1C21OC(=O)c2ccccc21
The conditions noted are these: PBS, 0.1 mg/mL acetylated BSA, 25 °C.

Substrate in data set [8]: CCCCCCCC(=O)Oc1ccc([N+](=O)[O-])cc1
The conditions noted are these: PBS, 0.1 mg/mL acetylated BSA, 1% acetonitrile, 25 °C.

B1: OVCA2 (Homo sapiens) (protein)
chain: MAAQRPLRVLCLAGFRQSERGFREKTGALRKALRGRAELVCLSGPHPVPDPPGPEGARSDFGSCPPEEQPRGWWFSEQEADVFSALEEPAVCRGLEESLGMVAQALNRLGPFDGLLGFSQGAALAALVCALGQAGDPRFPLPRFILLVSGFCPRGIGFKESILQRPLSLPSLHVFGDTDKVIPSQESVQLASQFPGAITLTHSGGHFIPAAAPQRQAYLKFLDQFAE
What is called Km is the substrate concentration at which the rate is half of its maximum. As a reminder, the kcat is the maximal rate divided by the concentration of active sites. In general, kcat/Km refers to the second-order rate constant that governs catalysis at low substrate concentration. In the case of B1, the Km in “purified protein [1]” amounted to 3.84 ± 1.1 µM; in the data set “purified protein [2]”, 2900 ± 100 µM; in the data set “purified protein [3]” it was 1400 ± 600 µM; in the data set “purified protein [4]”, 17 ± 14 µM; in “purified protein [5]”, 29 ± 19 µM; in the data set “purified protein [6]”, 12 ± 5 µM. Further, the Km in the data set “purified protein [7]” worked out at 3.7 ± 0.8 µM; in “purified protein [8]”, 6.1 ± 5.7 µM. Also, the kcat in the data set “purified protein [1]” amounted to 0.025 ± 0.001 s⁻¹; in the data set “purified protein [3]”, 0.26 ± 0.03 s⁻¹; in “purified protein [4]”, 0.076 ± 0.01 s⁻¹; in the data set “purified protein [5]”, 0.076 ± 0.01 s⁻¹; in the data set “purified protein [6]” it was 0.0013 ± 0.0002 s⁻¹; in “purified protein [7]” it was 0.0012 ± 0.0001 s⁻¹. In addition, the catalytic constant (kcat) in “purified protein [8]” is 0.023 ± 0.005 s⁻¹. For the same protein, the kcat/Km amounted to 6800 ± 1000 M⁻¹ s⁻¹ in “purified protein [1]”; 200 ± 50 M⁻¹ s⁻¹ in “purified protein [3]”; 4500 ± 1800 M⁻¹ s⁻¹ in “purified protein [4]”; 2700 ± 950 M⁻¹ s⁻¹ in “purified protein [5]”; 100 ± 40 M⁻¹ s⁻¹ in “purified protein [6]”; 330 ± 70 M⁻¹ s⁻¹ in the data set “purified protein [7]”. Also, in the data set “purified protein [8]”, the kcat/Km amounted to 3800 ± 1800 M⁻¹ s⁻¹.

B2: OVCA2 (Homo sapiens; D179A) (protein)
chain: MAAQRPLRVLCLAGFRQSERGFREKTGALRKALRGRAELVCLSGPHPVPDPPGPEGARSDFGSCPPEEQPRGWWFSEQEADVFSALEEPAVCRGLEESLGMVAQALNRLGPFDGLLGFSQGAALAALVCALGQAGDPRFPLPRFILLVSGFCPRGIGFKESILQRPLSLPSLHVFGDTAKVIPSQESVQLASQFPGAITLTHSGGHFIPAAAPQRQAYLKFLDQFAE
Consider B2, for which the Km in “purified protein [1]” amounted to 3.2 ± 1.5 µM; in the data set “purified protein [4]” it was 5.7 ± 1.9 µM; in the data set “purified protein [5]”, 1.1 ± 0.6 µM; in “purified protein [8]”, 2.0 ± 0.2 µM. Besides, the values for the kcat in the data set “purified protein [1]”, in the data set “purified protein [4]” and in “purified protein [5]” were 3.7e-05 ± 4e-06 s⁻¹, 4.6e-05 ± 4e-06 s⁻¹ and 7.3e-05 ± 8e-06 s⁻¹, respectively. Further, the kcat/Km in the data set “purified protein [1]” turned out to be 11 ± 3 M⁻¹ s⁻¹; in “purified protein [4]”, 7.8 ± 1.4 M⁻¹ s⁻¹; in “purified protein [5]”, 69 ± 20 M⁻¹ s⁻¹; in “purified protein [8]” it was 0.5 ± 0.3 M⁻¹ s⁻¹.
